Data published in article PMC3060684.
Residue numbers refer to the chain shown, from its start. Read-outs that look alike come from different tables or passages of the source.

B1: LumM (LumMs/LumMa) (dsDNA)
DNA 1: TAAGTAGATATTGAAAGCAAGATTGAAAAAAATGTTG
DNA 2: AATCAAACATTTTTTTCAATCTTGCTTTCAATATCT
B2: LumMD (LumMDs/LumMDa) (dsDNA)
DNA 1: B1 DNA 1 with A8C
DNA 2: B1 DNA 2 with T34G
B3: LumF (LumFs/LumFa) (dsDNA)
DNA 1: AAGTGAAAAAAAAAAGAGATATTCGAAGGG
DNA 2: GATTCCCTTCGAATATCTCTTTTTTTTTTC
B4: LumFD (LumFDs/LumFDa) (dsDNA)
DNA 1: B3 DNA 1 with A19C
DNA 2: B3 DNA 2 with T16G

Tests used:
GST-CCA1 [1] = biological target: T1, GST-CCA1 (Arabidopsis thaliana, UniProt P92973 1-608); test: EMSA
T1 sequence (P92973 whole entry): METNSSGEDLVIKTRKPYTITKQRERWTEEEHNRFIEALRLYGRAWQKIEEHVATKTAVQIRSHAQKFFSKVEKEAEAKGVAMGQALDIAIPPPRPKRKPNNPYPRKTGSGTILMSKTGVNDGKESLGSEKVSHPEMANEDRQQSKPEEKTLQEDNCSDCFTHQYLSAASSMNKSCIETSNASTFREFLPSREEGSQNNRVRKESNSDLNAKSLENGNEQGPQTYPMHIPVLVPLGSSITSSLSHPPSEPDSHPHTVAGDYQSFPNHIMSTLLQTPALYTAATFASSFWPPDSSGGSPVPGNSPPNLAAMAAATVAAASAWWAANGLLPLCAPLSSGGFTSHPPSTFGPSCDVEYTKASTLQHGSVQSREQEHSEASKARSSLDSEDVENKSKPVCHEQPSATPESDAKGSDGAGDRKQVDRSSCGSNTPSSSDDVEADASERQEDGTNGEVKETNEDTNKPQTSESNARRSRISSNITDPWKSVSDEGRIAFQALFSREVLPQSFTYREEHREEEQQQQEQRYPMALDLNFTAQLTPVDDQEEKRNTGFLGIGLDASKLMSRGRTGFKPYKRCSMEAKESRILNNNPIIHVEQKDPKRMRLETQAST

GST-CCA1 [2] = biological target: T1, GST-CCA1; test: EMSA; remark: listed apart in the source

Row | Binder | binding result (GST-CCA1 [1]) | binding result (GST-CCA1 [2])
1 | B1 | binds | –
2 | B2 | – | no binding
3 | B3 | binds | –
4 | B4 | – | no binding
